According to the Human Domainome abundance scans (Beltran et al. 2025):

B1: POU domain, class 3, transcription factor 3, residues 408 to 463; numbered along this chain, P20264 (parent)
chain: KKRTSIEVSVKGALESHFLKCPKPSAQEITNLADSLQLEKEVVRVWFCNRRQKEKR

Variants of: B1
Experiment: abundance fitness (aPCA) (normalised: wild type 0, dead -1); higher = more abundant; growth selection in yeast, the domain comes from the species named
Conditions: Homo sapiens

Abundance fitness: each site, then its substitutions
A13: E -0.081, V 0.111, D -0.355, I -0.046, Y -0.17, Q -0.099, W -0.344, P -0.353, F -0.191, T -0.058, S -0.079, R 0.018, M -0.096
V10: F -0.291, N -0.148, T -0.023, P -0.472, Q 0.07, H 0.072, G -0.241, M -0.192, E 0.154, I -0.066, K -0.032, A -0.005, D 0.176, C -0.108, S -0.153, L -0.042, Y -0.129, R -0.108
G12: K -0.035, Q -0.094, P -0.056, R 0.007, A 0.227, W -0.25, F -0.054, I 0.051, Y 0.103, T 0.078, N 0.11, L 0.104, V 0.211, M 0.161, H -0.009, E 0.111, C 0.096, D 0.048
K1: R -0.263, Y -0.258, A -0.075, C -0.104, W -0.15, Q -0.271, V -0.092, I -0.181, M -0.333, S -0.154, N -0.072, L -0.756, D -0.124, G -0.067
S16: H -0.287, E 0.006, D 0.026, F -0.232, P -0.441, K 0.036, C -0.086, I -0.361, M -0.076, G -0.059, A -0.026, L -0.106, N -0.044
S5: G -0.008, H 0.175, C 0.128, M 0.125, A 0.086, D -0.064, W -0.255, P 0.132, E -0.047, K 0.097, Y 0.206, Q 0.203, T 0.135, N 0.193
S9: W -0.192, D 0.038, Y -0.015, G 0.027, C -0.247, E 0.072, L -0.206, T -0.051, P -0.068, N 0.166, V -0.132, A 0.054, R -0.018, H 0.092, M -0.305, Q 0.067, F -0.285, I -0.368, K 0.01
E15: R -1.03, D -0.753, S -1, M -0.713, V -0.698, K -0.582, G -1.02, A -0.858, N -1.02, L -0.599, W -0.593
K11: W -0.116, Q -0.015, A -0.099, M -0.006, I -0.006, F -0.186, N -0.27, H -0.04, G -0.135, Y 0.067, P -0.024, V -0.085, C -0.141, R -0.045
E7: L -0.09, H -0.016, K 0.028, S 0.144, Q -0.035, P 0.167, T 0.134, W -0.436, G 0.013, F -0.263, N 0.063, A -0.096, V -0.197, R -0.057, D 0.05, Y -0.3, M -0.035, I -0.157
I6: T 0.058, V -0.093, W -0.124, P 0.01, R -0.108, S -0.077, A -0.015, K -0.051, G -0.071, E -0.091, Q -0.084, N -0.234, D -0.135, Y -0.189, F -0.272
